Experimental data published in patent US20080152587A1 (Amgen, published 2008).

T1: mouse uPAR on the surface of NCTC L929 cells (mouse, UniProt P35456 24-298)
T1 construct: whole, on cells; also called cell surface mouse uPAR
T1 sequence (looked up): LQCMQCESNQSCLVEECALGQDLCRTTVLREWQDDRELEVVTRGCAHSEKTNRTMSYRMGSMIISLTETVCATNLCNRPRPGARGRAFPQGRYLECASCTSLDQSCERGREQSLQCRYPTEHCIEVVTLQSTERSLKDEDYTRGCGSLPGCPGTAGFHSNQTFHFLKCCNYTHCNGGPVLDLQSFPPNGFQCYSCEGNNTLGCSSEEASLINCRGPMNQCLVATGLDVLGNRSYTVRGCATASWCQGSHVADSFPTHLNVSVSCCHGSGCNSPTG

T2: murine uPAR (form not stated) (mouse, UniProt P35456 24-297, limits assumed)
T2 construct: also called mouse uPAR
T2 sequence (looked up): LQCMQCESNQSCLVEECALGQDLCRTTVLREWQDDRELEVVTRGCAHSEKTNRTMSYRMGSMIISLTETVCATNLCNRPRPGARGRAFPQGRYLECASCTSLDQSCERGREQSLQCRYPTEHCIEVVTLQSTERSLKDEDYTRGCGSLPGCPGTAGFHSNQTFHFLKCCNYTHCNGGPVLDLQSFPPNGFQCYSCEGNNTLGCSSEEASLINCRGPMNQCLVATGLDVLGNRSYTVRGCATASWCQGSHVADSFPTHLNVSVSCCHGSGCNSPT

T3: lane 1: murine DI/DIII-human DII uPAR chimera (His-tagged)
T3 construct: The sheet prints only the lane number; also called Murine D1/Human D2/Murine D3; murine D1/human D2/MuD3
T3 uPAR ECD chimera: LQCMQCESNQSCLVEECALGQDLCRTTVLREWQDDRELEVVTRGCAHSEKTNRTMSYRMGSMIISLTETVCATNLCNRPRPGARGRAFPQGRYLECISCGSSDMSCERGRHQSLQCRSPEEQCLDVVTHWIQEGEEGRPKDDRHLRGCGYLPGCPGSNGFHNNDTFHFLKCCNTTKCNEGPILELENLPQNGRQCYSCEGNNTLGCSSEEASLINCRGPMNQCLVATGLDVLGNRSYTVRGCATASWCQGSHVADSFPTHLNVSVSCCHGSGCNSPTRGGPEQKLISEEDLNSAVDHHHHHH

T4: lane 2: murine DI/DII-human DIII uPAR chimera (His-tagged)
T4 construct: The sheet prints only the lane number; also called Murine D1D2/Human D3
T4 uPAR ECD chimera: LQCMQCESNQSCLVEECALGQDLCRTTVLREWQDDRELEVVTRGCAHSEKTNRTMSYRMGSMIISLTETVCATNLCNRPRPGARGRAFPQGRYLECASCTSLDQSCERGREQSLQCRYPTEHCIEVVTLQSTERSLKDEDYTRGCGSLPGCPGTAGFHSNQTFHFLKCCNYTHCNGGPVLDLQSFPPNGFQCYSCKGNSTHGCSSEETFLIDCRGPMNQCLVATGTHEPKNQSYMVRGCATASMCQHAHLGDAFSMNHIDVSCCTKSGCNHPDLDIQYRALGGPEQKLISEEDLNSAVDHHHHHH

T5: lane 3: murine DI-human DII/DIII uPAR chimera (His-tagged)
T5 construct: The sheet prints only the lane number; also called Murine D1/Human D2D3; murine D1/humanD2D3
T5 uPAR ECD chimera: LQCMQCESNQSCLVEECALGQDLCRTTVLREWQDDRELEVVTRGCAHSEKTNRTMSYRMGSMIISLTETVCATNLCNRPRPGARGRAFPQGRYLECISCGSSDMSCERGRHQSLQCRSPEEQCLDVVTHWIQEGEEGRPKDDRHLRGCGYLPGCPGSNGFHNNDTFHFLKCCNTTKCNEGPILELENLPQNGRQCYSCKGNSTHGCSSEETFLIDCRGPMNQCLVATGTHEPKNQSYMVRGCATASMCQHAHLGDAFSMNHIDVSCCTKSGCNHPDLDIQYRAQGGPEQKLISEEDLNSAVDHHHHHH

T6: lane 4: human DI/DII-murine DIII uPAR chimera (His-tagged)
T6 construct: The sheet prints only the lane number; also called Human D1D2/Murine D3; human D1D2/murineD3uPAR
T6 uPAR ECD chimera: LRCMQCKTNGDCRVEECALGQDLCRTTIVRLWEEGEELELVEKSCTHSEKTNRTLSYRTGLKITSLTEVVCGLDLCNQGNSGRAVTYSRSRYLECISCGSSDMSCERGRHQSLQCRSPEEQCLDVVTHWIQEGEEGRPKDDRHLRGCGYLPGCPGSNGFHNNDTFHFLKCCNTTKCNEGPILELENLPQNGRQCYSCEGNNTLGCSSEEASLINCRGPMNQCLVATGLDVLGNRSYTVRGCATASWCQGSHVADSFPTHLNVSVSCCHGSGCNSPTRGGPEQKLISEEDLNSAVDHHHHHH


Assays:
[1] = target: T7, human urokinase-type plasminogen activator receptor (uPAR, CD87), cell-bound (human, UniProt Q03405 23-305); assay: cell-based or functional assay
[2] = target: T7, human urokinase-type plasminogen …; assay: cell-based or functional assay; remark: listed apart in the source
[3] = target: T1, mouse uPAR on the surface of NCTC L929 …; assay: FACS, NCTC L929 mouse cells
Procedure: To make the mouse cross-reactivity results conclusive, direct binding of the mAbs to cell-bound mouse uPAR was measured using FACS analysis. The mouse cell line derived from the connective tissue, NCTC L929, was employed for FACS analysis. The harvested cells were resuspended at 50,000 cells/well using FACS buffer into a V-bottom plate which was put on ice. […] After washing, Cy5-labeled goat anti-human IgG Fc at 5 μg/ml and 7AAD at 5 μg/ml was added. The mixtures were incubated for 15 min on ice, washed and resuspended in cold FACS buffer for FACS analysis.

[4] = target: T2, murine uPAR (form not stated); assay: summary column Murine X-reactivity
[5] = target: T7, human urokinase-type plasminogen …; assay: FACS competition with FITC-tc-uPA, line material
Target sequence in this assay (Q03405 23-305): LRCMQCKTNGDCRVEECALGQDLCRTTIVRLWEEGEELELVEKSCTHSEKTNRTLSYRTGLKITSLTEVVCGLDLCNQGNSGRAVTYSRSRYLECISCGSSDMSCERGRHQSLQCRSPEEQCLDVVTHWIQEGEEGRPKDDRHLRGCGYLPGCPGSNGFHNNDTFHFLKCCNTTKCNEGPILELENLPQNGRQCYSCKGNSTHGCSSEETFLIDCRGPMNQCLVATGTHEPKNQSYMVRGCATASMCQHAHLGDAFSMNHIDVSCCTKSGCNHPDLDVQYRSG
Source text: Briefly, murine fibroblast L929 cells (ATCC) were transfected to express human uPAR.

[6] = target: T8, soluble recombinant human uPAR/His6 (R&D Systems, Cat. # 807-UK-100) (human, UniProt Q03405 23-303); assay: limited antigen ELISA, uPAR coat 20 ng/mL, sample 1:25
T8 construct: range 1-303; Bought protein; also called soluble uPAR; hu-uPAR
Procedure: ELISA plates were coated with a lower amount ofuPAR in comparison with the High Antigen Quantitation assay described below (320, 160, 80, 40 and 20 ng/mL). Samples containing one concentration of antibody (Ab) (1:25 dilution) were incubated overnight to allow Ab binding to approach equilibrium.

[7] = target: T3, lane 1: murine DI/DIII-human DII uPAR …; assay: Western blot of HEK293T culture supernatants with His-tagged uPAR proteins, probed with the antibody
Source text: (§1) Human-murine uPAR chimeras (His-tagged) were expressed in BEK293T cells and uPAR expression was detected using the anti-human uPAR mAbs as indicated.
(§2) Chimeric human-murine uPAR comprising murine D1/humanD2D3; murine D1/human D2/MuD3; and human D1D2/murineD3uPAR each with a C-terminal His tag were expressed as secreted proteins in HEK293T cells.

[8] = target: T4, lane 2: murine DI/DII-human DIII uPAR …; assay: as above
Source text: as §1, §2

[9] = target: T5, lane 3: murine DI-human DII/DIII uPAR …; assay: as above
Source text: as §1, §2

[10] = target: T6, lane 4: human DI/DII-murine DIII uPAR …; assay: as above
Source text: as §1, §2

T8 sequence (Q03405 other isoform, or with tags, fused parts or gaps limits assumed, form in doubt): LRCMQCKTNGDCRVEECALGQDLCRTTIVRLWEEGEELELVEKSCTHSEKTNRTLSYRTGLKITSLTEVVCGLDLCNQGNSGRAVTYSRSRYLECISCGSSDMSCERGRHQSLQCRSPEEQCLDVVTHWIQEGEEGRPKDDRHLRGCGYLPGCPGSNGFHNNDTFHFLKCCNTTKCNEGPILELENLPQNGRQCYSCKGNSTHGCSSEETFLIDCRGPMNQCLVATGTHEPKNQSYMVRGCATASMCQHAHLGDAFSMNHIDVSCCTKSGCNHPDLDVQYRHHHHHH

| inhibition of adhesion of U937 cells to vitronectin at 2 µg/ml [1] | inhibition of plasminogen activation on U937 cells [1] | Plasminogen activation inhibition (IC50, ug/ml) [2] | binding result [3] | binding result [4] | Human uPAR/uPA binding inhibition (%, line material) [5] | LA at 20 ng/ml [6] | binding result [7] | binding result [8] | binding result [9] | binding result [10] | Binder |
| --- | --- | --- | --- | --- | --- | --- | --- | --- | --- | --- | --- |
| ~90% | > 90% | 0.067 µg/mL | no binding (tested: 6.25 µg/ml) | no binding | 75% | 0.27 | no binding | no binding | binds | no binding | fully human monoclonal antibody 4.18.1 (ATCC Accession Number PTA-7476) (antibody, V domains shown) VH: EVQLVESGGGLIQPGGSLRLSCAASGFTVRNNYMNWVRQAPGKGLEWVSVIYTGGSTYYADSVKGRFTISRDNSRNTLYLQMNSLRAEDTAVYYCAREGAVAGFDYWGQGTLVTVSL VL: EIVMTQFPATLSMSPGERATLSCRASQSVSSSLAWYQQTPGQAPRLLIYGASTRSTGFPARFSGIGSGTEFTLTISSLQSEDFAVYYCQQYGNWPLTFGQGTRLEIK |
| 90% | > 90% | 0.053 µg/mL | no binding (tested: 6.25 µg/ml) | no binding | 85% | 0.65 | no binding | no binding | no binding | binds | fully human monoclonal antibody 2.19.2 (ATCC Accession Number PTA-7474) (antibody, V domains shown) VH: QVQLVESGGGVVQPGRSLRLSCAASGFTFSSYGMHWVRQAPGKGLEWVAVIWYDGSNKYYADSVKGRFTISRDNSKNTLYLQMNSLRAEDTAVYYCARDQHIVVVTAILDYWGQGTLVTVSS VL: not shown |
| 90% | > 90% | 0.073 µg/mL | no binding (tested: 6.25 µg/ml) | no binding | 80% | 0.63 | no binding | no binding | binds | no binding | fully human monoclonal antibody 2.6.1 (ATCC Accession Number PTA-7475) (antibody, V domains shown, also called mAb 2.6.1) VH: EVQLVESGGGLIQPGGSLRLSCAASGFTVITNYMNWVRQAPGKGLEWVSIIYTGGSTSYADSVKGRFTVSRDNSKNTLYLHMNSLRVEDTAVYYCAREIAVAGYYGMDVWGQGTTVTVS VL: DIQMTQSPSSLSASVGDRVTITCRASQGIRNDLGWYQQKPGKAPKRLIYAASSLQSGVPSRFSGSGSGTEFTLTISSLQPEDFATYYCLQHNSYPLTFGGGTRVEIK |
